# Substitutions are numbered along the chain they refer to. In names and notes the source's numbering stands.
# T1: apelin receptor (AGTRL1) on CHO-K1 cells (UniProt P35414 1-380, limits assumed)
# T1 sequence (looked up): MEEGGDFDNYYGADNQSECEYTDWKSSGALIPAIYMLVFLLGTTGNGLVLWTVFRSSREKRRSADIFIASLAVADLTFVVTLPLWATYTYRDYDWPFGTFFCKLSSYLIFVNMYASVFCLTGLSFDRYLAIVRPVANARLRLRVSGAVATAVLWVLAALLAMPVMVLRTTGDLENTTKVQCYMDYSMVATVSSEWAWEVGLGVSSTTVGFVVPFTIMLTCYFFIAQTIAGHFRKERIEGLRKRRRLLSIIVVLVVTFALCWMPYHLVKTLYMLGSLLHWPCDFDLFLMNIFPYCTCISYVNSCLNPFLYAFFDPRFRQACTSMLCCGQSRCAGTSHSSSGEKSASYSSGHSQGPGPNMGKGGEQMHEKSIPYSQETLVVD
# T2: APJ-eGFP fusion protein on CHO-M1 cells (UniProt P35414 1-380)
# T2 sequence (looked up): T1 sequence (looked up)
# T3: apelin receptor (AGTRL1) (Homo sapiens, UniProt P35414)
# T3 construct: host or cells: CHO-K1
# T3 sequence (P35414 1-380): T1 sequence (looked up)
# T4: apelin receptor (Homo sapiens, UniProt P35414)
# T4 construct: host or cells: human heart tissue
# T4 sequence (P35414 1-380): T1 sequence (looked up)
# B1: ELA-C (Fc fusion)
# chain: DKTHTSPPSPAPEAAGGPSVFLFPPKPKDTLMISRTPEVTCVVVDVSHEDPEVKFNWYVDGVEVHNAKTKPREEQYNSTYRVVSVLTVLHQDWLNGKEYKCKVSNKALPAPIEKTISKAKGQPREPQVYTLPPSREEMTKNQVNLTCLVKGFYPSDIAVEWESNGQPENNYKTTPPVLDSDGSFFLNSTLTVDKSRWQQGNVFSCSVMHEALHNHYTQKSLSLSPGKGGGGSGGGGSGGGGSKLRKHNCLQRRCMILHSRVPFP
# B2: ELA-L (Fc fusion)
# chain: B1 chain with L250A, Q251T, I256P
# B3: ELA-F (Fc fusion)
# chain: B1 chain with Q251K, I256P
# B4: ELA-D (Fc fusion)
# chain: B1 chain with I256P, S259Q
# B5: ELA-G (Fc fusion)
# chain: B1 chain with I256P, R260Y
# B6: ELA-K (Fc fusion)
# chain: B1 chain with Q251I, I256P
# B7: ELA-H (Fc fusion)
# chain: B1 chain with I256P, L257Y
# B8: ELA-E (Fc fusion)
# chain: B1 chain with I256P, S259R
# B9: ELA-D: Fc-linker fusion of elabela analogue KLRKHNCLQRRCMPLHQRVPFP (S17Q) (protein)
# chain: MRAWIFFLLCLAGRALADKTHTSPPSPAPEAAGGPSVFLFPPKPKDTLMISRTPEVTCVVVDVSHEDPEVKFNWYVDGVEVHNAKTKPREEQYNSTYRVVSVLTVLHQDWLNGKEYKCKVSNKALPAPIEKTISKAKGQPREPQVYTLPPSREEMTKNQVNLTCLVKGFYPSDIAVEWESNGQPENNYKTTPPVLDSDGSFFLNSTLTVDKSRWQQGNVFSCSVMHEALHNHYTQKSLSLSPGKGGGGSGGGGSGGGGSKLRKHNCLQRRCMPLHQRVPFP
# B10: ELA-E: Fc-linker fusion of elabela analogue KLRKHNCLQRRCMPLHRRVPFP (S17R) (protein)
# chain: B9 chain with Q276R
# B11: ELA-J: Fc-linker fusion of elabela analogue KLRKHNCLQERCMPLHSRVPFP (R10E) (protein)
# chain: B9 chain with R269E, Q276S
# Biological target: T1, apelin receptor (AGTRL1) on CHO-K1 cells
# Test: cell-based or functional assay
# Conditions: not given
ERK EC50 [nM],beta-Arrestin EC50 (nM) Exp. 1 [nM],beta-Arrestin EC50 (nM) Exp. 2 [nM],cAMP EC50 (nM) Exp. 1 [nM],cAMP EC50 (nM) Exp. 2 [nM],Molecule
1.13,535,75.1,0.577,1,B1
–,7.54,6.9,0.632,2.8,B2
–,9.59,43.5,1.01,1,B3
–,–,922,10.7,4.4,B4
–,89.1,521,9.91,14.3,B5
–,3.45,12.2,4.76,5.7,B6
–,21.9,97.5,10,5.8,B7
–,–,352,4.42,2.4,B8

# Biological target: T2, APJ-eGFP fusion protein on CHO-M1 cells
# Test: cell-based or functional assay
# Conditions: not given
row,Internalization Score,Molecule
1,2,B1
2,2,B2
3,3,B3
4,1,B4
5,1,B5
6,2,B6
7,2,B7
8,0,B8

# Biological target: T3, apelin receptor (AGTRL1)
# Test: PathHunter beta-arrestin signaling assay
# Format: cell-based
# Conditions: Exp. 1; PathHunter CHO-K1 AGTRL1 β-arrestin cells
# Description: In this example, commercially available HitHunter® cAMP assay was used to determine the effect of apelin receptor agonists on Gai signaling, measured cAMP depletion. Next, commercially available PathHunter® beta-arrestin assay was used to determine the effect of apelin receptor agonists on beta-arrestin signaling. Additionally, the effect of apelin receptor agonists on ERK signaling was determined.
# In a 384-well plate (Corning #3897), PathHunter® CHO-K1 AGTRL1 β-arrestin cells (Eurofins DiscoverX #93-0250C2) were seeded at 5×10^3 cells/well in 20 μL AssayComplete Cell Plating 2 Reagent (Eurofins DiscoverX #93-0563R2A) and were incubated overnight at 37° C. with 5% CO2. On the following day, the plate was treated with 5 μL/well of compounds serially diluted in 1×PBS+0.1% BSA buffer and was incubated for 1.5 hr at 37° C. with 5% CO2. Then, 12.5 μL/well of detection solution was added, prepared as instructed in the PathHunter® Detection Kit (Eurofins DiscoverX #93-0001), the plate was wrapped in foil, and was incubated at room temperature. Plates were read after 1-2 hr of incubation on a standard luminescence plate reader. In this assay, low levels of β-arrestin in cells were directly related to low luminescence signal. Using Four Parameter Logistic Regression for curve fitting, the raw data file was processed into S-shaped dose-response curves from which values, such as the EC50, Hill Slope, and Emax, were quantified.
row,beta-Arrestin EC50 (nM) Exp. 1,Molecule
1,Weak,B9
2,Weak,B10

# Same assay, conditions: Exp. 2; PathHunter CHO-K1 AGTRL1 β-arrestin cells
row,beta-Arrestin EC50 (nM) Exp. 2,Molecule
1,Weak,B11

# System: not listed separately
# Test: Proteolysis during production detected using mass spectroscopy
# Format: physicochemical
# Conditions: proteolytic stability
# Description: Proteolysis during production was detected using mass spectroscopy, which provides insights into the proteolytic stability of the apelin receptor agonists.
row,Molecule,Proteolysis During Production?
1,B9,No
2,B11,Yes
3,B10,No

# System: APJ-eGFP fusion protein
# Test: Internalization assay, CHO-M1 cells expressing APJ-eGFP, high-content imaging
# Format: cell-based
# Parameters: key: 0: No Internalization; >1000; 2: 100-1000; 3: 10-100; 4: <10
# Conditions: lowest concentration at which maximum internalization was observed; 0.914 nM to 2000 nM
# Description: In this example, the internalization of exemplary apelin receptor agonist was assessed. CHO-M1 cells expressing an APJ-eGFP fusion protein were stained and plated in a 96-well plate. Apelin receptor agonists were serially diluted and added to the wells at concentrations ranging from 0.914 nM to 2000 nM. The cells were later imaged using an Operetta CLS™ high-content analysis system. APJ-eGFP signal was measured in the membrane and cytoplasmic region, and the ratio of membrane signal to total signal was calculated (E ratio). An internalization score was assigned based on the lowest concentration of the compound at which maximum internalization was observed. The internalization score for each apelin receptor agonist was plotted against the EC50 values for cAMP signaling and beta-arrestin signaling as shown in FIG. 2 and FIG. 3.
row,Molecule,Internalization Score
1,B9,1 (>1000)
2,B10,0

# Biological target: T4, apelin receptor
# Test: not given
# Conditions: human heart; cited from earlier work
row,Molecule,affinity for the apelin receptor
1,elabela-21,nanomolar affinity
